Results reported in article PMC3526264, “The C-terminus of Dpb2 is required for interaction with Pol2 and for cell viability” (Nucleic Acids Research, 2012).

Biological target: T1, Pol2 (S. cerevisiae, UniProt P21951 1-2222)
T1 construct: Pol2, catalytic subunit of DNA polymerase epsilon, S. cerevisiae; over-expression vector pJL1; also called catalytic subunit of DNA polymerase ε; source: S. cerevisiae pY116, galactose-induced over-expression (pJL1), co-expressed with the other Pol ε subunits
Test: co-purification (ion-exchange and size-exclusion chromatography); Pol2, Dpb2-201, Dpb3 and Dpb4 co-over-expressed in S. cerevisiae pY116; Pol ε purification protocol as in ref. 23; Coomassie-stained 10% SDS-PAGE, band intensities measured
Settings: partners not purified

T1 sequence (P21951 whole entry): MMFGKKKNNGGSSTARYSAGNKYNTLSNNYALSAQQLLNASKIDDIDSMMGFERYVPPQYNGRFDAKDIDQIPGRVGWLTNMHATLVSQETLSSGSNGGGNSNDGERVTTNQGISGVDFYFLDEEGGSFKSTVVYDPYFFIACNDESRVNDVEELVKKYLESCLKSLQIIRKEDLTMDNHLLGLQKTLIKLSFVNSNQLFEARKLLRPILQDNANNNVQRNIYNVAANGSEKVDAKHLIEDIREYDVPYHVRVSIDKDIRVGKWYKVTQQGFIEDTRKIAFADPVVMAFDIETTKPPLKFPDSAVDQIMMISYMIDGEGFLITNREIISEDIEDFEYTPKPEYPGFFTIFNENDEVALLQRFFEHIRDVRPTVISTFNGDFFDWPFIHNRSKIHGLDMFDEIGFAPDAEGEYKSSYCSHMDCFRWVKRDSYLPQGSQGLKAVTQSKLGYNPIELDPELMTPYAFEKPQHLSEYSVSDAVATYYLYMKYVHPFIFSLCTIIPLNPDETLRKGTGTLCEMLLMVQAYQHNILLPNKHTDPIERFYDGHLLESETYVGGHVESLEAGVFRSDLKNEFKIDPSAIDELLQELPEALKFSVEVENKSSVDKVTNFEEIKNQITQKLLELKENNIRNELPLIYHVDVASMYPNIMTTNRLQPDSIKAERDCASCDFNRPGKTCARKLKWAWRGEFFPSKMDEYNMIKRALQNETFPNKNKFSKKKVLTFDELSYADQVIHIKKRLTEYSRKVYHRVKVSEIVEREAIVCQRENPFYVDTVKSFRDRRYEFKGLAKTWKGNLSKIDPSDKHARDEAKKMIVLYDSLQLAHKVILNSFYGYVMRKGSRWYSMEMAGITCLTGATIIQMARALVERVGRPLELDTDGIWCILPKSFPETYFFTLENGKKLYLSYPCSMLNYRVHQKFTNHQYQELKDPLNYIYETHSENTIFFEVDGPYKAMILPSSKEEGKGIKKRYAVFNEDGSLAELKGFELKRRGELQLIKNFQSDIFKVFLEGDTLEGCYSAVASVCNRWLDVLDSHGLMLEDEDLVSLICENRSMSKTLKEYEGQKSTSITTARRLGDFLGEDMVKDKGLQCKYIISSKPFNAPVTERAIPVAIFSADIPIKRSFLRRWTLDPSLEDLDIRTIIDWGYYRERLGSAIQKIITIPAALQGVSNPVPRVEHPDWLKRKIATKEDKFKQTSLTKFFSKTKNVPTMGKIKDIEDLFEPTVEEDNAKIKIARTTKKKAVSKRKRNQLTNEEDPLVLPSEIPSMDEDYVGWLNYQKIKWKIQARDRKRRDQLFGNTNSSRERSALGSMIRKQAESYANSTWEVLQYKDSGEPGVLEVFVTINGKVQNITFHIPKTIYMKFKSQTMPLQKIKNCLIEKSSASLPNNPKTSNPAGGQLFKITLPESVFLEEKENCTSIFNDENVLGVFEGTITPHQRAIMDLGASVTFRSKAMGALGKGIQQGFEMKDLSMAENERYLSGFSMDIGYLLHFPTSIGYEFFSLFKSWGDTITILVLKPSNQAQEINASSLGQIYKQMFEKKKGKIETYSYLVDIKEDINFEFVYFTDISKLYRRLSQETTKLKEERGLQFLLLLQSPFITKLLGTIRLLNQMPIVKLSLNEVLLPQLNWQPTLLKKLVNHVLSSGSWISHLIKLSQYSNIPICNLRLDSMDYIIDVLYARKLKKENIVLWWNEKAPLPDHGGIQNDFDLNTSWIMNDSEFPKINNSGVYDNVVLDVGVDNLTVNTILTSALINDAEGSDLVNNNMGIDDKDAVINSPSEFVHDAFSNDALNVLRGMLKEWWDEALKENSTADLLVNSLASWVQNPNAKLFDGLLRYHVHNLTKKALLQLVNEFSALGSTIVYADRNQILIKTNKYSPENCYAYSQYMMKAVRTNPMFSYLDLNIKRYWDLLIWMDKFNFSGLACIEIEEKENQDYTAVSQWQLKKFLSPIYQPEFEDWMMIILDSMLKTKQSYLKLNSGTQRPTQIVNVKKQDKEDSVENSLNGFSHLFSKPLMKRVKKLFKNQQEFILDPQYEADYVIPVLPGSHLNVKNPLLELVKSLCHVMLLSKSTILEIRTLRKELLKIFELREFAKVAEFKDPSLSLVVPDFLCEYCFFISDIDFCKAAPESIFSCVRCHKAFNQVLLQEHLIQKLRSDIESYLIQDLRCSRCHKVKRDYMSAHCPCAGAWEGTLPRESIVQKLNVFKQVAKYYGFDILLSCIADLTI

B1: Dpb3 (natural protein, S. cerevisiae, UniProt P27344 1-201, looked up)
chain: MSNLVKEKAPVFPISKVKKIAKCDPEYVITSNVAISATAFAAELFVQNLVEESLVLAQLNSKGKTSLRLSLNSIEECVEKRDNFRFLEDAIKQLKKNSALDKKRELNMQPGRSDQEVVIEEPELHEDDGVEEEEEEDEVSEEEEPVHNEELLDDSKDQQNDKSTRSVASLLSRFQYKSALDVGEHSDSSDIEVDHTKSTDP
notes: Dpb3, subunit of DNA polymerase epsilon, S. cerevisiae; over-expression vector pJL5 (Dpb3 and Dpb4); source: S. cerevisiae pY116, galactose-induced over-expression (pJL5), co-expressed with the other Pol ε subunits
With B1 the “stoichiometry N” value was roughly 1.1 Dpb3 per Pol2.

B2: Dpb4 (natural protein, S. cerevisiae, UniProt Q04603 1-196, looked up)
chain: MPPKGWRKDAQGNYPTTSYIKEQENITIQDLLFPKSTIVNLAREVPQQSGKKLLINKDASLALQRGATVFVNHLLLFAREIAKSQDKKSCSVDDVLSALDHIGHSALKGPVRDKLDEYQAAVEQRKKEKLDSGEVDADGDIDMGEDKENVPVEKVKEHDEIEEQGDALQDVEESSEKKQKTESQDVETRVQNLEQT
notes: Dpb4, subunit of DNA polymerase epsilon, S. cerevisiae; over-expression vector pJL5 (Dpb3 and Dpb4); source: S. cerevisiae pY116, galactose-induced over-expression (pJL5), co-expressed with the other Pol ε subunits
B2 was tested, and the “stoichiometry N” value was roughly 1.4 Dpb4 per Pol2.
